Assay results: patent publication US20080044411A1

Target: GLP-1 R expressed in Rinm cells
Experiment: cell-based or functional assay

- cAMP activity in Rinm cells, EC50: 0.4 nM
Substance: GLP-1 peptide (from UniProt P01275 98-128)
